Assay results published in paper PMC9482650, “Quantitative fragmentomics allow affinity mapping of interactomes” (Nature Communications, 2022).

Legend:
Test in all cases: holdup assay
Design in all cases: key: below the threshold = too weak to quantify, mostly under pKd 3.1 to 4
[1] = target: PDLIM1, O00151
[2] = target: T1, PDZD2_2, O15018
T1 sequence (O15018 329-429, limits assumed, looked up): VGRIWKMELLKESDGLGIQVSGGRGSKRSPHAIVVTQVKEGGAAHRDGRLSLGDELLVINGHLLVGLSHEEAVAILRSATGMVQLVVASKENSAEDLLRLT

[3] = target: T2, SNTA1, Q13424
T2 sequence (Q13424 82-180, limits assumed, looked up): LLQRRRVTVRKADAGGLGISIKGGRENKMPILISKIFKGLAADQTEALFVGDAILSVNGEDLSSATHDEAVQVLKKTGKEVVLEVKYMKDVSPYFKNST

[4] = target: GRIP2_6, Q9C0E4
Chain of GRIP2_6, Q9C0E4 (Q9C0E4 648-740): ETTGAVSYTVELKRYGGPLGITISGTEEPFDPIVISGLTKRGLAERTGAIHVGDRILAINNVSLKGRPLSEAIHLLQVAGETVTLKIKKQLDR

[5] = target: T3, DFNB31_2, Q9P202
T3 sequence (Q9P202 274-371, limits assumed, looked up): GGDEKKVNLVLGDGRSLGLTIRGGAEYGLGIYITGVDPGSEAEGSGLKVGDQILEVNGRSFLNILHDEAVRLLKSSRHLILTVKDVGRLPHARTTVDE

[6] = target: T4, DLG3_2, Q92796
T4 sequence (Q92796 221-321, limits assumed, looked up): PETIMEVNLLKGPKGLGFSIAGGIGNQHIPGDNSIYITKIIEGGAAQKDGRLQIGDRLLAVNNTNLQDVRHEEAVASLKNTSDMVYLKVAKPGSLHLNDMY

[7] = target: IL16_1, Q14005
Chain of IL16_1, Q14005 (Q14005 210-306): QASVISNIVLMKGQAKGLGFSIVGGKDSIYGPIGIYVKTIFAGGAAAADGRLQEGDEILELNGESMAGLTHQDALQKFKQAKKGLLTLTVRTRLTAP

[8] = target: HTRA1, Q92743
Chain of HTRA1, Q92743 (Q92743 360-477): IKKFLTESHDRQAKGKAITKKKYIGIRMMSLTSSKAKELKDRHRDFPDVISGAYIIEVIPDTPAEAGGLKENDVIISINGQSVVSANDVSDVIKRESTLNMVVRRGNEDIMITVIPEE

[9] = target: T5, PDZRN3_1, Q9UPQ7
T5 sequence (Q9UPQ7 244-349, limits assumed, looked up): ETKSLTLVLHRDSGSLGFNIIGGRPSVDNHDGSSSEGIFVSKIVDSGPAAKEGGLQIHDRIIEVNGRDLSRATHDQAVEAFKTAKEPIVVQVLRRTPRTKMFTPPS

[10] = target: T6, MPDZ_12, O75970
T6 sequence (O75970 1857-1958, limits assumed, looked up): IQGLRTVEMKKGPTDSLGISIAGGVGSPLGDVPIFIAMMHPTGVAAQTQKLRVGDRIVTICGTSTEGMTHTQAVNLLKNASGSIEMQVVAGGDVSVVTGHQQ

[11] = target: T7, ARHGAP21, Q5T5U3
T7 sequence (Q5T5U3 45-169, limits assumed, looked up): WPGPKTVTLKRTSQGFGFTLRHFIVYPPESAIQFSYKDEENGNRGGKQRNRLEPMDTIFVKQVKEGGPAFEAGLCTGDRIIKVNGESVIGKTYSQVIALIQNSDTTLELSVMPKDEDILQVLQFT

[12] = target: T8, GRIP1_4, Q9Y3R0
T8 sequence (Q9Y3R0 467-571, limits assumed, looked up): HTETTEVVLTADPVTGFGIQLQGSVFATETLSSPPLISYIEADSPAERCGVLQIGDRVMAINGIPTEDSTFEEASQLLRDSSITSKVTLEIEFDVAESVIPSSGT

[13] = target: Inadl_4, Q8NI35
Chain of Inadl_4, Q8NI35 (Q8NI35 547-651): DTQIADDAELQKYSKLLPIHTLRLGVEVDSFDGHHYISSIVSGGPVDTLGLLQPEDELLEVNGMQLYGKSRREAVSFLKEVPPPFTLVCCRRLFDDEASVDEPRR

[14] = target: T9, MPDZ_5, O75970
T9 sequence (O75970 695-796, limits assumed, looked up): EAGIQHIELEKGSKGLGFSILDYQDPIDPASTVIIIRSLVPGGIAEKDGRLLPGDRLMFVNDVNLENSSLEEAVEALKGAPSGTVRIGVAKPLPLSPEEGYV

[15] = target: TJP1_2, Q07157
Chain of TJP1_2, Q07157 (Q07157 181-274): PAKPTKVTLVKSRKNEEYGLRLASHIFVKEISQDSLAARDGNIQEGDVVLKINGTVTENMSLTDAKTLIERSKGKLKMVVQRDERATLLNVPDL

[16] = target: MAGI2_2, Q86UL8
Chain of MAGI2_2, Q86UL8 (Q86UL8 410-522): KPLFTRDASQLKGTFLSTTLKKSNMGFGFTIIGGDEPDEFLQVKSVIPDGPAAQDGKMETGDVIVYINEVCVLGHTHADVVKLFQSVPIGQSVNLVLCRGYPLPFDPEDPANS

[17] = target: MAGI3_2, Q5TCQ9
Chain of MAGI3_2, Q5TCQ9 (Q5TCQ9 398-503): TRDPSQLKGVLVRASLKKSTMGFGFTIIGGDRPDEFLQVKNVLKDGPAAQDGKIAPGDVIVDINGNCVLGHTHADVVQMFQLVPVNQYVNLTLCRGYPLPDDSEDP

[18] = target: T10, DFNB31_3, Q9P202
T10 sequence (Q9P202 811-907, limits assumed, looked up): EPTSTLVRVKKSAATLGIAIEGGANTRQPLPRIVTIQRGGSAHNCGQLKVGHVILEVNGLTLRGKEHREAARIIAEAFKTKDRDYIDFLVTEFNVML

[19] = target: T11, TX1BP3, O14907
T11 sequence (O14907 10-122, limits assumed, looked up): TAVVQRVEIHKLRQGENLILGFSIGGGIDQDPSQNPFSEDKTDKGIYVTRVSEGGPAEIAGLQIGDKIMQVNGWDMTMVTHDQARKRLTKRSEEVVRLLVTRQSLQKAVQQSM

[20] = target: LIMK2, P53671
Chain of LIMK2, P53671 (P53671 143-248): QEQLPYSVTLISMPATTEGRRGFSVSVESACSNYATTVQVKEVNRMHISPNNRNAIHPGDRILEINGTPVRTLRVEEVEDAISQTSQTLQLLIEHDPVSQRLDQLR

[21] = target: FRMPD3, Q5JV73
Chain of FRMPD3, Q5JV73 (Q5JV73 12-100): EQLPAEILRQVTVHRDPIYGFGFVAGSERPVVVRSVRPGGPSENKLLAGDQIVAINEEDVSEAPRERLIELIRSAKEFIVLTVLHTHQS

[22] = target: T12, MPDZ_10, O75970
T12 sequence (O75970 1624-1722, limits assumed, looked up): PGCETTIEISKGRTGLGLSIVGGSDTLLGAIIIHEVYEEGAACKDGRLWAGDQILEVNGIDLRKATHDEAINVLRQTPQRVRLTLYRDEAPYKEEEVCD

[23] = target: T13, MPP7, Q5T2T1
T13 sequence (Q5T2T1 134-230, limits assumed, looked up): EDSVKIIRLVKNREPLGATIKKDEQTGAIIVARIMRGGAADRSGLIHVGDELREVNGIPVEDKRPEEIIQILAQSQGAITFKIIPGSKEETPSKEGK

[24] = target: Inadl_3, Q8NI35
Chain of Inadl_3, Q8NI35 (Q8NI35 359-469): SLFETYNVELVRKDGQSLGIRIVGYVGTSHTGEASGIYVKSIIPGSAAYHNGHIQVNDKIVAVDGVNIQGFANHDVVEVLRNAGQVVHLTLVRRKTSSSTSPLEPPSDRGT

[25] = plain residues with an end cap or a label only (N-terminal biotin on a linker: ado-ado)
[26] = modified: phospho on T at position -2 from the C-terminal residue

Chain of PDLIM1, O00151 (O00151 1-87): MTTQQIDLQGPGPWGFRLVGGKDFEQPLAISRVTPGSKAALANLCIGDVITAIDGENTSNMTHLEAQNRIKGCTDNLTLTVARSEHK

B1: ZSCAN30, Q86W11 (peptide)
chain: MQHQRTHTRV
[1]; [25]
  pKd: below the threshold
[2]; [25]
  pKd: 3.95
[3]; [25]
  pKd: 4.23
[4]; [25]
  pKd: below the threshold
[5]; [25]
  pKd: below the threshold
[6]; [25]
  pKd: 4.88
[7]; [25]
  pKd: below the threshold
[8]; [25]
  pKd: 3.99
[9]; [25]
  pKd: below the threshold
[10]; [25]
  pKd: below the threshold
[11]; [25]
  pKd: 3.92
[12]; [25]
  pKd: below the threshold
[13]; [25]
  pKd: below the threshold
[14]; [25]
  pKd: below the threshold
[15]; [25]
  pKd: below the threshold
[16]; [25]
  pKd: 5.42
[17]; [25]
  pKd: 5.37
[18]; [25]
  pKd: below the threshold
[19]; [25]
  pKd: 3.57
[20]; [25]
  pKd: below the threshold
[21]; [25]
  pKd: below the threshold
[22]; [25]
  pKd: 3.7
[23]; [25]
  pKd: below the threshold
[24]; [25]
  pKd: below the threshold

B2: SCN8A, Q9UQD0 (peptide)
chain: RQKEVRESKC
[1]; [25]
  pKd: below the threshold
[2]; [25]
  pKd: 3.94
[3]; [25]
  pKd: 4.65
[4]; [25]
  pKd: below the threshold
[5]; [25]
  pKd: 4.37
[6]; [25]
  pKd: 4.1
[7]; [25]
  pKd: 3.7
[8]; [25]
  pKd: below the threshold
[9]; [25]
  pKd: 4.02
[10]; [25]
  pKd: below the threshold
[11]; [25]
  pKd: below the threshold
[12]; [25]
  pKd: below the threshold
[13]; [25]
  pKd: below the threshold
[14]; [25]
  pKd: below the threshold
[15]; [25]
  pKd: below the threshold
[16]; [25]
  pKd: 4.02
[17]; [25]
  pKd: 4.01
[18]; [25]
  pKd: 3.95
[19]; [25]
  pKd: 3.96
[20]; [25]
  pKd: below the threshold
[21]; [25]
  pKd: below the threshold
[22]; [25]
  pKd: 3.8
[23]; [25]
  pKd: below the threshold
[24]; [25]
  pKd: below the threshold

B3: HPV16-E6_-2P, P03126 (peptide)
chain: SSRTRRETQL
[1]; [26]
  pKd: below the threshold
[2]; [26]
  pKd: below the threshold
[3]; [26]
  pKd: below the threshold
[4]; [26]
  pKd: below the threshold
[5]; [26]
  pKd: below the threshold
[6]; [26]
  pKd: below the threshold
[7]; [26]
  pKd: below the threshold
[8]; [26]
  pKd: below the threshold
[9]; [26]
  pKd: below the threshold
[10]; [26]
  pKd: below the threshold
[11]; [26]
  pKd: 4.05
[12]; [26]
  pKd: below the threshold
[13]; [26]
  pKd: below the threshold
[14]; [26]
  pKd: below the threshold
[15]; [26]
  pKd: below the threshold
[16]; [26]
  pKd: below the threshold
[17]; [26]
  pKd: below the threshold
[18]; [26]
  pKd: 3.89
[19]; [26]
  pKd: 3.98
[20]; [26]
  pKd: below the threshold
[21]; [26]
  pKd: below the threshold
[22]; [26]
  pKd: below the threshold
[23]; [26]
  pKd: below the threshold
[24]; [26]
  pKd: below the threshold
